The conditions of the series: Escherichia coli (strain K12), Thermal, DSC, KH2PO4-KOH 10 mM, reversible: no, whole UniProt chain shown.

B1: Glyceraldehyde-3-phosphate dehydrogenase A wild type, P0A9B2 (protein)
chain: MTIKVGINGFGRIGRIVFRAAQKRSDIEIVAINDLLDADYMAYMLKYDSTHGRFDGTVEVKDGHLIVNGKKIRVTAERDPANLKWDEVGVDVVAEATGLFLTDETARKHITAGAKKVVMTGPSKDNTPMFVKGANFDKYAGQDIVSNASCTTNCLAPLAKVINDNFGIIEGLMTTVHATTATQKTVDGPSHKDWRGGRGASQNIIPSSTGAAKAVGKVLPELNGKLTGMAFRVPTPNVSVVDLTVRLEKAATYEQIKAAVKAAAEGEMKGVLGYTEDDVVSTDFNGEVCTSVFDAKAGIALNDNFVKLVSWYDNETGYSNKVLDLIAHISK
On to B1, for which the Tm (in general, the temperature at the midpoint of the melting transition) (pH 6) was found to be 75.3 °C and the Tm (pH 8) is 72.6 °C. The “unfolding enthalpy (calorimetric)” value reads like this: (pH 6) 908 kcal/mol; (pH 8) 1080 kcal/mol.

For the origin of these results see FireProtDB (doi:10.1016/s0167-4838(99)00132-6).
